Data reported in IntAct's records for PubMed 25910212.

B1: U4/U6 small nuclear ribonucleoprotein Prp31 (Homo sapiens), Q8WWY3 (parent)
chain: MSLADELLADLEEAAEEEEGGSYGEEEEEPAIEDVQEETQLDLSGDSVKTIAKLWDSKMFAEIMMKIEEYISKQAKASEVMGPVEAAPEYRVIVDANNLTVEIENELNIIHKFIRDKYSKRFPELESLVPNALDYIRTVKELGNSLDKCKNNENLQQILTNATIMVVSVTASTTQGQQLSEEELERLEEACDMALELNASKHRIYEYVESRMSFIAPNLSIIIGASTAAKIMGVAGGLTNLSKMPACNIMLLGAQRKTLSGFSSTSVLPHTGYIYHSDIVQSLPPDLRRKAARLVAAKCTLAARVDSFHESTEGKVGYELKDEIERKFDKWQEPPPVKQVKPLPAPLDGQRKKRGGRRYRKMKERLGLTEIRKQANRMSFGEIEEDAYQEDLGFSLGHLGKSGSGRVRQTQVNEATKARISKTLQRTLQKQSVVYGGKSTIRDRSSGTASSVAFTPLQGLEIVNPQAAEKKVAEANQKYFSSMAEFLKVKGEKSGLMST
partner: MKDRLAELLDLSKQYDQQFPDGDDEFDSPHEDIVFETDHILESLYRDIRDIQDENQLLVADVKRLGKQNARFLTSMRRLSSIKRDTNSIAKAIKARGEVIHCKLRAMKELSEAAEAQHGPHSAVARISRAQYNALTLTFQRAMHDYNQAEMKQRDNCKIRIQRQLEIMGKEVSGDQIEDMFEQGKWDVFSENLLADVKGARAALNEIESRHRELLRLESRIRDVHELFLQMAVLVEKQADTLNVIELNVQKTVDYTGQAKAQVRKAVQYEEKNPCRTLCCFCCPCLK
B2: Iodotyrosine deiodinase 1 (Homo sapiens), Q6PHW0 (parent)
chain: MYFLTPILVAILCILVVWIFKNADRSMEKKKGEPRTRAEARPWVDEDLKDSSDLHQAEEDADEWQESEENVEHIPFSHNHYPEKEMVKRSQEFYELLNKRRSVRFISNEQVPMEVIDNVIRTAGTAPSGAHTEPWTFVVVKDPDVKHKIRKIIEEEEEINYMKRMGHRWVTDLKKLRTNWIKEYLDTAPILILIFKQVHGFAANGKKKVHYYNEISVSIACGILLAALQNAGLVTVTTTPLNCGPRLRVLLGRPAHEKLLMLLPVGYPSKEATVPDLKRKPLDQIMVTV
partner: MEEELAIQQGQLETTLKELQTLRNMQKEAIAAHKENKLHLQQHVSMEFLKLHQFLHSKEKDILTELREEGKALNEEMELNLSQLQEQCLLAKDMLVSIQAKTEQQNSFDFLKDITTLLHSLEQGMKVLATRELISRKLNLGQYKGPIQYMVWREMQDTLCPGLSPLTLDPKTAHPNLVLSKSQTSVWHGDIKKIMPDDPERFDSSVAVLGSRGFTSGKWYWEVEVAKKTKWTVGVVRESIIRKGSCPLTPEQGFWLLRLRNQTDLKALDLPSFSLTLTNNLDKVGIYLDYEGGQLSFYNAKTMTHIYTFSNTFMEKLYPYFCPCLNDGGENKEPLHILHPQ
B3: Mothers against decapentaplegic homolog 3 (Homo sapiens), P84022 (parent)
chain: MSSILPFTPPIVKRLLGWKKGEQNGQEEKWCEKAVKSLVKKLKKTGQLDELEKAITTQNVNTKCITIPRSLDGRLQVSHRKGLPHVIYCRLWRWPDLHSHHELRAMELCEFAFNMKKDEVCVNPYHYQRVETPVLPPVLVPRHTEIPAEFPPLDDYSHSIPENTNFPAGIEPQSNIPETPPPGYLSEDGETSDHQMNHSMDAGSPNLSPNPMSPAHNNLDLQPVTYCEPAFWCSISYYELNQRVGETFHASQPSMTVDGFTDPSNSERFCLGLLSNVNRNAAVELTRRHIGRGVRLYYIGGEVFAECLSDSAIFVQSPNCNQRYGWHPATVCKIPPGCNLKIFNNQEFAALLAQSVNQGFEAVYQLTRMCTIRMSFVKGWGAEYRRQTVTSTPCWIELHLNGPLQWLDKVLTQMGSPSIRCSSVS
partner: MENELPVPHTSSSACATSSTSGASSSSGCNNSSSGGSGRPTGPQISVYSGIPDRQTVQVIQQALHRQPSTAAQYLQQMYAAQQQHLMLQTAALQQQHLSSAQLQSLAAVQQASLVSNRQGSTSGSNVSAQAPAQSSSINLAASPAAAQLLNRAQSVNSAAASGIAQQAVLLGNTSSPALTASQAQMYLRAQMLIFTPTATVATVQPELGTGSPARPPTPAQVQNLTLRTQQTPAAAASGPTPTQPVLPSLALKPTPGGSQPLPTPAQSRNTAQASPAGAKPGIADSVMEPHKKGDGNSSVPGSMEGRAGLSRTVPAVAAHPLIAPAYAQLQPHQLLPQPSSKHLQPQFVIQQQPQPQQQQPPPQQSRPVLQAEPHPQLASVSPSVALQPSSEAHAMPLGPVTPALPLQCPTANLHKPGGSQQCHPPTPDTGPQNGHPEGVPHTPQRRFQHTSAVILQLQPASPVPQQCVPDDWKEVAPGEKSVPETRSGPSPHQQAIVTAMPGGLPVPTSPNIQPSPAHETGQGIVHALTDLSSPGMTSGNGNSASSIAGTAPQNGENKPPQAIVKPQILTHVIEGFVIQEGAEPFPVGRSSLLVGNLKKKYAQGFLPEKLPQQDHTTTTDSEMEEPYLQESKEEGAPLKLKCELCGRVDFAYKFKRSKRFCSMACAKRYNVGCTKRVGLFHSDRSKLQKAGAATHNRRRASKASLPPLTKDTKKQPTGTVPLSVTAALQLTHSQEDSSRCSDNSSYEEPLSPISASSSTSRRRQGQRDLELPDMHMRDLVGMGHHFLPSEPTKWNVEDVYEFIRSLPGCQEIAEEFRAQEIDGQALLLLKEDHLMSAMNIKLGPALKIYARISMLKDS

Variants of: B1
Conditions: with stx11_human STX11, O75558
MSLADELLADLEEAAEEEEGGSYGEEEEEPAIEDVQEETQLDLSGDSVKTIAKLWDSKMFAEIMMKIEEYISKQAKASEVMGPVEAAPEYRVIVDANNLTVEIENEVNIIHKFIRDKYSKRFPELESLVPNALDYIRTVKELGNSLDKCKNNENLQQILTNATIMVVSVTASTTQGQQLSEEELERLEEACDMALELNASKHRIYEYVESRMSFIAPNLSIIIGASTAAKIMGVAGGLTNLSKMPACNIMLLGAQRKTLSGFSSTSVLPHTGYIYHSDIVQSLPPDLRRKAARLVAAKCTLAARVDSFHESTEGKVGYELKDEIERKFDKWQEPPPVKQVKPLPAPLDGQRKKRGGRRYRKMKERLGLTEIRKQANRMSFGEIEEDAYQEDLGFSLGHLGKSGSGRVRQTQVNEATKARISKTLQRTLQKQSVVYGGKSTIRDRSSGTASSVAFTPLQGLEIVNPQAAEKKVAEANQKYFSSMAEFLKVKGEKSGLMST [L107V] was tested, and the “effect of a mutation on the interaction” value was “with no effect”.

Variants of: B2
Conditions: with TRIM69, Q86WT6-2
MYFLTPILVAILCILVVWIFKNADRSMEKKKGEPRTRAEARPWVDEDLKDSSDLHQAEEDADEWQESEENVEHIPFSHNHYPEKEMVKRSQEFYELLNKRRSVRFISNEQVPMEVTDNVIRTAGTAPSGAHTEPWTFVVVKDPDVKHKIRKIIEEEEEINYMKRMGHRWVTDLKKLRTNWIKEYLDTAPILILIFKQVHGFAANGKKKVHYYNEISVSIACGILLAALQNAGLVTVTTTPLNCGPRLRVLLGRPAHEKLLMLLPVGYPSKEATVPDLKRKPLDQIMVTV [I116T] was tested, and the “effect of a mutation on the interaction” value was “with no effect”.
For MYFLTPILVAILCILVVWIFKNADRSMEKKKGEPRTRAEARPWVDEDLKDSSDLHQAEEDADEWQESEENVEHIPFSHNHYPEKEMVKRSQEFYELLNKRRSVRFISNEQVPMEVIDNVIRTAGTAPSGAHTEPWTFVVVKDPDVKHKIRKIIEEEEEINYMKRMGHRWVTDLKKLRTNWIKEYLDTAPILILIFKQVHGFAANGKKKVHYYNEISVSITCGILLAALQNAGLVTVTTTPLNCGPRLRVLLGRPAHEKLLMLLPVGYPSKEATVPDLKRKPLDQIMVTV [A220T], the “effect of a mutation on the interaction” value was “with no effect”.
MYFLTPILVAILCILVVWIFKNADRSMEKKKGEPRTRAEARPWVDEDLKDSSDLHQAEEDADEWQESEENVEHIPFSHNHYPEKEMVKRSQEFYELLNKRWSVRFISNEQVPMEVIDNVIRTAGTAPSGAHTEPWTFVVVKDPDVKHKIRKIIEEEEEINYMKRMGHRWVTDLKKLRTNWIKEYLDTAPILILIFKQVHGFAANGKKKVHYYNEISVSIACGILLAALQNAGLVTVTTTPLNCGPRLRVLLGRPAHEKLLMLLPVGYPSKEATVPDLKRKPLDQIMVTV [R101W] was tested, and the “effect of a mutation on the interaction” value was “with no effect”.

Variants of: B3
Conditions: with PHC2, Q8IXK0-5
With N197I the “effect of a mutation on the interaction” value was “with no effect”.
